From patent US20220298231A1 (AC IMMUNE, published 2022)
Where no end group is shown, it is not given here. The star is where a group is joined. Biotin = O=C1N[C@H]2[C@H](CS[C@H]2CCCCC(=O)*)N1; Ahx = NCCCCCC(=O)O

T1: 82-96aa
T1 construct: also called alpha-synuclein peptide 82-96
T1 peptide: {Biotin-Ahx}-VEGAGSIAAATGFVK

T2: 109-123aa
T2 peptide: {Biotin-Ahx}-QEGILEDMPVDPDNE

T3: 91-105aa
T3 construct: also called alpha-synuclein peptide 91-105
T3 peptide: {Biotin-Ahx}-ATGFVKKDQLGKNEE

T4: 100-114aa
T4 peptide: {Biotin-Ahx}-LGKNEEGAPQEGILE


How the values were obtained:
[1] = target: T1, 82-96aa; experiment: 15-mer peptide ELISA;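 further: indirect ELISA of hybridoma supernatant antibodies (1/100, 1 h) binding immobilized 15-mer peptides spanning human alpha-synuclein 1-140 on streptavidin plates, read as optical density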
[2] = target: T2, 109-123aa; experiment: 15-mer peptide ELISA;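 further: indirect ELISA of hybridoma supernatant antibodies (1/100, 1 h) binding immobilized 15-mer peptides spanning human alpha-synuclein 1-140 on streptavidin plates, read as optical density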
[3] = target: T3, 91-105aa; experiment: 15-mer peptide ELISA;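 further: indirect ELISA of hybridoma supernatant antibodies (1/100, 1 h) binding immobilized 15-mer peptides spanning human alpha-synuclein 1-140 on streptavidin plates, read as optical density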
[4] = target: T4, 100-114aa; experiment: 15-mer peptide ELISA;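 further: indirect ELISA of hybridoma supernatant antibodies (1/100, 1 h) binding immobilized 15-mer peptides spanning human alpha-synuclein 1-140 on streptavidin plates, read as optical density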
[5] = target: T5, human full-length alpha-synuclein (human, UniProt P37840 1-140); experiment: SPR, mAb captured, steady-state fit
Description: (§1) Non-covalent immobilization of alpha-synuclein antibodies was performed using a target immobilization method of 200 response units (RU). […] Binding affinity of alpha-synuclein antibodies to monomeric or fibrillar alpha-synuclein species was performed using a single-cycle kinetics method. […] A dissociation phase of 900 sec followed the final 50 nM injection. Regeneration of the sensor to the goat anti-human antibody layer was achieved using 3 regenerations of 10 mM Glycine pH 1.7. […] Regeneration of the sensor to the goat anti-human antibody layer was achieved using 3 regenerations of 10 mM Glycine pH 1.7. Results obtained from single-cycle kinetics were evaluated by Biacore K8 evaluation software with 1:1 binding homogenous Langmuir model (with a global Rmax) with Cycle 5 as a blank subtraction. The following kinetic parameters were obtained: on-rate (ka), off-rate (kd), affinity constant (KD, ratio of kd by ka), maximum response (Rmax), and goodness of fit (Chi2).
(§2) Kinetic constants were determined from 1:1 homogenous binding models for binding versus the aggregated form, while a steady state fit was used to determine KD values versus the monomeric form of alpha-synuclein.

[6] = target: T6, alpha-synuclein fibrils (Homo sapiens (Human), UniProt P37840 1-140); experiment: SPR, 450 nM aggregates, relative to chimeric;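 further: surface plasmon resonance with anti-human Fc capture, human IgG1 isotype control channel and buffer run subtracted, dissociation rates fitted by 1:1 or heterogeneous ligand binding model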
Description: (§3) Flow channels (Fc) 1-8 were activated with a fresh solution of EDC/NHS (Amine Coupling Kit, 1:1 ratio of both reagents, GE Healthcare Life Sciences, BR100050). […] The chip was deactivated by 1 M ethanolamine-HCl (GE Healthcare Life Sciences, BR100050) at a flow rate of 10 μL/min for 420 s.
(§4) A human IgG1 isotype control diluted in running buffer 1×HBS-EP+ (GE Healthcare Life Sciences, BR100669) was captured onto Fc1 via anti-human Fc IgG at a flow rate of 10 μL/min. […] 10 mM glycine pH 1.5 as regeneration buffer was injected following every dissociation phase.
(§5) The data for reference channel Fc1 and buffer channel were subtracted to generate the sensorgrams. The experimental data was fitted by 1:1 binding model or heterogeneous ligand model.

[7] = target: T6, alpha-synuclein fibrils; experiment: SPR, mAb captured, 1:1 model
Description: as §1, §2

[8] = target: T5, human full-length alpha-synuclein; experiment: SPR, 100 nM monomer, relative to chimeric;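 further: SPR with antibody variants captured via anti-human Fc IgG on an amine-coupled chip, isotype IgG1 reference channel subtracted, dissociation rate fitted by 1:1 or heterogeneous ligand model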
Description: as §3, §4, §5

Row | binding result [1] | binding result [2] | binding result [3] | binding result [4] | Kd [5] [nM] | Relative koff [6] | Kd [7] [nM] | koff [7] [s⁻¹] | kon [7] [M⁻¹ s⁻¹] | Relative koff [8] | Binder
1 | no binding (tested: supernatant 1/100) | no binding (tested: supernatant 1/100) | no binding (tested: supernatant 1/100) | no binding (tested: supernatant 1/100) | – | – | – | – | – | – | ACI-8033-25A3-Ab1 (antibody, V domains shown, mouse hybridoma mAb; also called 917.25A3E9F6) VH: EVQLVESGGGLVQPKGSLKLSCAASGFSFNTYAMNWVRQAPGKGLEWVARIRSKSNNFATYYADSVKDRFTISRDESESMLYLQMNNLKTEDTAMYYCVRSFDYWGQGTTLTVSS VL: DIKMTQSPSSMYASLGERVTITCKASQDINSYLSWFQQKPGKSPKTLIYRAKRLVDGVPSRFSGSGSGQDYSLTISSLEYEDMGIYYCLQYDEFPFTFGSGTKLEIK
2 | – | no binding (tested: supernatant 1/100) | no binding (tested: supernatant 1/100) | no binding (tested: supernatant 1/100) | – | – | – | – | – | – | ACI-8033-1F8-Ab1 (antibody, V domains shown, mouse hybridoma mAb; also called 917.1F8D8E4) VH: DVQLQESGPGLVKPSQSLSLTCSVTGYSITSGFYWNWIRQFPGNKLEWMGYISYDGSNNYNPSLKNRISIIRDTSKNQFFLKLKSVTSEDTATYYCVRGDVDWGQGTTLTVSS VL: not shown
3 | – | – | – | – | 20.1 | 1.5 | 1 | 2.18e-05 | 22000 | 1.1 | hACI-7067-1101C8-Ab2_H5L1 (antibody, V domains shown, VH on human IgG1 constant, VL on human kappa constant) VH: EVQLVESGGGLVQPGGSLKLSCAASGFSFNIYAMNWVRQAPGKGLEWVGRIRSKSNAYATYYAASVKGRFTISRDDSKNTLYLQMNNLKTEDTAVYYCTRVGLRFYAMDYWGQGTLVTVSS VL: DVVMTQSPLSLPVTLGQPASISCRSSQSIVHSNANTYLEWYQQRPGQSPRLLIYKVSNRFSGVPDRFSGSGSGTDFTLKISRVEAEDLGVYYCFQGSQGPLTFGQGTKLEIK
4 | – | – | – | – | 48.2 | 1.7 | – | – | 11500 | 0.2 | hACI-7067-1101C8-Ab2_H10L1 (antibody, V domains shown, VH on human IgG1 constant, VL on human kappa constant) VH: EVQLVESGGGLVQPGGSLKLSCAASGFTFNIYAMNWVRQAPGKGLEWVGRIRSKSNAYATYYAASVKGRFTISRDDSKNTLYLQMNNLKTEDTAVYYCTRVGLRFYALDYWGQGTLVTVSS VL: DVVMTQSPLSLPVTLGQPASISCRSSQSIVHSNANTYLEWYQQRPGQSPRLLIYKVSNRFSGVPDRFSGSGSGTDFTLKISRVEAEDLGVYYCFQGSQGPLTFGQGTKLEIK
5 | – | – | – | – | – | 1 | – | – | – | 0.3 | hACI-7067-1101C8-Ab2_H6L1 (antibody, V domains shown, VH on human IgG1 constant, VL on human kappa constant) VH: EVQLVESGGGLVQPGGSLKLSCAASGFSFNIYAMNWVRQAPGKGLEWVARIRSKSNAYATYYAASVKGRFTISRDDSKNTLYLQMNNLKTEDTAVYYCVRVGLRFYASDYWGQGTLVTVSS VL: DVVMTQSPLSLPVTLGQPASISCRSSQSIVHSNANTYLEWYQQRPGQSPRLLIYKVSNRFSGVPDRFSGSGSGTDFTLKISRVEAEDLGVYYCFQGSQGPLTFGQGTKLEIK
6 | – | – | – | – | 18.2 | 5.5 | 0.9 | 2.25e-05 | 23900 | 1.3 | hACI-7067-1101C8-Ab2_H9L1 (antibody, V domains shown, VH on human IgG1 constant, VL on human kappa constant) VH: EVQLVESGGGLVQPGGSLKLSCAASGFTFNIYAMNWVRQAPGKGLEWVGRIRSKSNAYATYYAASVKGRFTISRDDSKNTLYLQMNNLKTEDTAVYYCTRVGLRFYAMDYWGQGTLVTVSS VL: DVVMTQSPLSLPVTLGQPASISCRSSQSIVHSNANTYLEWYQQRPGQSPRLLIYKVSNRFSGVPDRFSGSGSGTDFTLKISRVEAEDLGVYYCFQGSQGPLTFGQGTKLEIK
7 | – | – | – | – | 28.7 | 0.3 | 13.7 | 0.000142 | 10400 | 0.1 | hACI-7067-1101C8-Ab2_H12L2 (antibody, V domains shown, VH on human IgG1 constant, VL on human kappa constant) VH: EVQLVESGGGLVQPGGSLKLSCAASGFTFNIYAMNWVRQAPGKGLEWVGRIRSKSNAYATYYAASVKGRFTISRDDSKNTAYLQMNNLKTEDTAVYYCTRVGLRFYALDYWGQGTLVTVSS VL: DVVMTQSPLSLPVTLGQPASISCRSSQSLVHSNANTYLEWYQQRPGQSPRLLIYKVSNRFSGVPDRFSGSGSGTDFTLKISRVEAEDLGVYYCFQGSQGPLTFGQGTKLEIK
8 | – | – | – | – | 40 | 1.1 | 2 | 3.6e-05 | 17600 | 0.2 | hACI-7067-1101C8-Ab2_H8L1 (antibody, V domains shown, VH on human IgG1 constant, VL on human kappa constant) VH: EVQLVESGGGLVQPGGSLKLSCAASGFSFNIYAMNWVRQAPGKGLEWVGRIRSKSNAYATYYAASVKGRFTISRDDSKNTLYLQMNNLKTEDTAVYYCTRVGLRFYALDYWGQGTLVTVSS VL: DVVMTQSPLSLPVTLGQPASISCRSSQSIVHSNANTYLEWYQQRPGQSPRLLIYKVSNRFSGVPDRFSGSGSGTDFTLKISRVEAEDLGVYYCFQGSQGPLTFGQGTKLEIK
9 | – | – | – | – | 66.9 | 2.3 | – | – | – | 0.8 | hACI-7067-1101C8-Ab2_H9L2 (antibody, V domains shown, VH on human IgG1 constant, VL on human kappa constant) VH: EVQLVESGGGLVQPGGSLKLSCAASGFTFNIYAMNWVRQAPGKGLEWVGRIRSKSNAYATYYAASVKGRFTISRDDSKNTLYLQMNNLKTEDTAVYYCTRVGLRFYAMDYWGQGTLVTVSS VL: DVVMTQSPLSLPVTLGQPASISCRSSQSLVHSNANTYLEWYQQRPGQSPRLLIYKVSNRFSGVPDRFSGSGSGTDFTLKISRVEAEDLGVYYCFQGSQGPLTFGQGTKLEIK
10 | – | – | – | – | 64.4 | 1 | – | – | – | 0.2 | hACI-7067-1101C8-Ab2_H12L1 (antibody, V domains shown, VH on human IgG1 constant, VL on human kappa constant) VH: EVQLVESGGGLVQPGGSLKLSCAASGFTFNIYAMNWVRQAPGKGLEWVGRIRSKSNAYATYYAASVKGRFTISRDDSKNTAYLQMNNLKTEDTAVYYCTRVGLRFYALDYWGQGTLVTVSS VL: DVVMTQSPLSLPVTLGQPASISCRSSQSIVHSNANTYLEWYQQRPGQSPRLLIYKVSNRFSGVPDRFSGSGSGTDFTLKISRVEAEDLGVYYCFQGSQGPLTFGQGTKLEIK
11 | – | – | – | – | 35.1 | 0.8 | – | – | – | 0.2 | hACI-7067-1101C8-Ab2_H10L2 (antibody, V domains shown, VH on human IgG1 constant, VL on human kappa constant) VH: EVQLVESGGGLVQPGGSLKLSCAASGFTFNIYAMNWVRQAPGKGLEWVGRIRSKSNAYATYYAASVKGRFTISRDDSKNTLYLQMNNLKTEDTAVYYCTRVGLRFYALDYWGQGTLVTVSS VL: DVVMTQSPLSLPVTLGQPASISCRSSQSLVHSNANTYLEWYQQRPGQSPRLLIYKVSNRFSGVPDRFSGSGSGTDFTLKISRVEAEDLGVYYCFQGSQGPLTFGQGTKLEIK
12 | – | – | – | – | 48 | 62 | – | – | – | 0.8 | hACI-7067-1101C8-Ab2_H11L1 (antibody, V domains shown, VH on human IgG1 constant, VL on human kappa constant) VH: EVQLVESGGGLVQPGGSLKLSCAASGFTFNIYAMNWVRQAPGKGLEWVGRIRSKSNAYATYYAASVKGRFTISRDDSKNTAYLQMNNLKTEDTAVYYCTRVGLRFYAMDYWGQGTLVTVSS VL: DVVMTQSPLSLPVTLGQPASISCRSSQSIVHSNANTYLEWYQQRPGQSPRLLIYKVSNRFSGVPDRFSGSGSGTDFTLKISRVEAEDLGVYYCFQGSQGPLTFGQGTKLEIK
13 | – | – | – | – | 80.1 | 5.4 | – | – | – | 0.8 | hACI-7067-1101C8-Ab2_H11L2 (antibody, V domains shown, VH on human IgG1 constant, VL on human kappa constant) VH: EVQLVESGGGLVQPGGSLKLSCAASGFTFNIYAMNWVRQAPGKGLEWVGRIRSKSNAYATYYAASVKGRFTISRDDSKNTAYLQMNNLKTEDTAVYYCTRVGLRFYAMDYWGQGTLVTVSS VL: DVVMTQSPLSLPVTLGQPASISCRSSQSLVHSNANTYLEWYQQRPGQSPRLLIYKVSNRFSGVPDRFSGSGSGTDFTLKISRVEAEDLGVYYCFQGSQGPLTFGQGTKLEIK
